# Key:
# [1] = target: T1, OB-R (Homo sapiens, UniProt P48357); assay: IL-1β and IL-1Ra levels in conditioned medium of human endometrial epithelial cells (ELISA); type: cell-based; settings: EEC, leptin 10 nM, 24 h; for effect on leptin-induced increase in IL-1Ra levels / effect on leptin-induced increase in IL-1β levels: LPA-2 30 μM
# T1 construct: After confirming via Western that the primary EEC and ESC and endometrial cell lines utilized herein had OB-R; endogenous in cells; host or cells: primary human EEC and ESC; Ishikawa (ECACC 9832301) and HES cell lines
# T1 sequence (P48357 22-1165): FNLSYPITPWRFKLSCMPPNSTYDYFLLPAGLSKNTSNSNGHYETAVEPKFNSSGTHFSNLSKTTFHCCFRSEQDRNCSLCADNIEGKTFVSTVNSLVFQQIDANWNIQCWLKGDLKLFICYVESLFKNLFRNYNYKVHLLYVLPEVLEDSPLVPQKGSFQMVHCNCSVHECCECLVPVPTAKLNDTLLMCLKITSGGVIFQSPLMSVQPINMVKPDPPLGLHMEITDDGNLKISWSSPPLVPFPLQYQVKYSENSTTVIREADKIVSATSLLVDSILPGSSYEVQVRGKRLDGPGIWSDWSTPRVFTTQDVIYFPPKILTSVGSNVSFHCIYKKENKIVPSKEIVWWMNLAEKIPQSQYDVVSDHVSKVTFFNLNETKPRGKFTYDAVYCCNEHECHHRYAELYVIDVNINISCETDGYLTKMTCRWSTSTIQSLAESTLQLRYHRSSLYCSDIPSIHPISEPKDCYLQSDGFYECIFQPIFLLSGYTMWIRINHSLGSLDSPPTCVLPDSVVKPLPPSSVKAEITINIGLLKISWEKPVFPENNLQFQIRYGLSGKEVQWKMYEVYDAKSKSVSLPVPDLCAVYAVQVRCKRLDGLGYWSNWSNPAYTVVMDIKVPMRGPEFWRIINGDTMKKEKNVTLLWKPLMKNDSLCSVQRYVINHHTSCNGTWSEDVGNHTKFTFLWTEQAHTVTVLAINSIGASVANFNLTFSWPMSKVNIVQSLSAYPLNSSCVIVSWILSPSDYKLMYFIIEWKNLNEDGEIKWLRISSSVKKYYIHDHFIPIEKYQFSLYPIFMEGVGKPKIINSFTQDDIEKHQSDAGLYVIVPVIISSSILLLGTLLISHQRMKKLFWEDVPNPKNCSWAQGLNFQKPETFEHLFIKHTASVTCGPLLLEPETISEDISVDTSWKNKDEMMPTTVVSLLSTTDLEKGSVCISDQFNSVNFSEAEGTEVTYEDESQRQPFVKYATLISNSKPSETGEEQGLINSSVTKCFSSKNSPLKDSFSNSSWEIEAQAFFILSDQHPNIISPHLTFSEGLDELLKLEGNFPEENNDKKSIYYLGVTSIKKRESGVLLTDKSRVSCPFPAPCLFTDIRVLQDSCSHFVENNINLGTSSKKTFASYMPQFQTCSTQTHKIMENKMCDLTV
# Protocol: (§1) Primary human endometrial cells (ESC and EEC) were cultured for 5-9 days in DMEM-F12 medium containing 5% fetal bovine serum (FBS), 5 μg/ml insulin, 1% amphopthericin B, 100 μg/ml streptomycin and 100 U/ml penicillin until they were 80% confluent. Two types of endometrial epithelial cell lines, HES (originally derived from a benign proliferative endometrium) and Ishikawa (human endometrial epithelial adenocarcinoma, ECACC 9832301, Wiltshire, England) were cultured under the same conditions described above. The cells were washed twice with 100 mM phosphate saline buffer (PBS), pH 7.2 and cultured for additional 2 days in the same medium but without FBS (basal medium). Cells were washed as described before and cultured in basal medium containing leptin (0, 3, 10 or 62 nM) or IL-1β (0.6, 3 and 10 nM).
# (§2) The anti-OB-R antibody (10 and 20 μg/ml) and LPA-2, a specific inhibitor of OB-R (3, 120, 300 nM or 30 μM) were used to assess whether leptin-induced effects were regulated primarily by the OB-R. Non-specific species-matched IgGs to the OB-R antibody and a scrambled version of LPA-2 (LPA-2Sc) served as negative controls (Gonzalez and Leavis, Endocrine 21: 185-195 (2003)). Inhibitors of IL-1R were used (monoclonal antibody anti-IL-1R tl and IL-1Ra) to assess whether leptin activated IL-1 induced signaling pathways or just activated similar components responsible for LIF/LIF-R expression. Treatment with the cytokine, inhibitor or the two combined was implemented for 5, 15, 30 and 60 min, and 24 and 48 h. The cells were prepared for Western blot analysis. The conditioned media was collected, lyophilized and stored at −80° C. until analysis for LIF, IL-1β and IL-1Ra by ELISA could be performed. Duplicate wells were run for each treatment and the experiments repeated at least three times with different cell preparations.
# (§3) Conditioned media from cells cultured under the experimental conditions described above were used to quantify the secretion of LIF, IL-1β and IL-1Ra by ELISA (Quantikine®, R&D Systems). The experiments were replicated three times and standards, controls, and samples were assayed in duplicate. Cytokine concentrations as determined by ELISA were within the range of the standard curve and were expressed in pg/ml/mg protein. The intra- and interassay coefficients of variation were between 5-8% and 8.5-10%, respectively. The lowest detectable concentration of each cytokine by ELISA was LIF (9 pg/ml), IL-1 (0.11 pg/ml) and IL-1Ra (15.6 pg/ml). These concentrations are similar to those reported by the manufacturer. LIF-ELISA is reported by the manufacturer to have a sensitivity of less than 8 pg/ml for both natural and recombinant human LIF and 100% specificity (no significant cross-reactivity or interference with a diversity of human and mouse cytokines and growth factors was observed). The performance characteristics for human IL-1β and IL-1Ra ELISAs reported are: 100% specificity, sensitivity 0.1 pg/ml and 14 pg/ml, respectively.
# [2] = target: T1, OB-R; assay: LIF levels in conditioned medium of human endometrial cells (ELISA); type: cell-based; settings: for effect on leptin-induced LIF levels in conditioned medium: leptin 3 nM plus inhibitor or control
# Protocol: as §1, §2, §3
Substance,effect on leptin-induced increase in IL-1Ra levels [1],effect on leptin-induced increase in IL-1β levels [1],effect on leptin-induced LIF levels in conditioned medium ([2]; Ishikawa cells),IL-1Ra levels after leptin [1],IL-1β levels after leptin [1],LIF levels after leptin ([2]; HES cells),"LIF levels in conditioned medium after leptin ([2]; Ishikawa cells, leptin 3 nM)","LIF levels after leptin ([2]; primary EEC, 24 h, dose-dependent)"
"SRNVIQISNDLENLRDLLHVLAFSKS [LPA-2, 26 amino acid peptide, residues 70-95 of helix III of the human leptin molecule; leptin peptide antagonist]",abrogated,abrogated,reduced LIF levels,,,,,
"leptin: human recombinant leptin (R&D Systems), OB-R ligand used as stimulus",,,,elevated levels,elevated levels,No response,increased the levels of LIF,increased level of LIF
"VAEVLNRSDLIQRISFSLDLNNSKLH [LPA-2Sc, scrambled version of LPA-2, negative control, reference compound]",not affected,not affected,not different,,,,,
